The text below walks through data of the supplement of paper PMC12042874.

± gives the uncertainty stated by the source.

The data set in a line: amyloid nucleation score (Sup35N fusion, yeast selection) (log enrichment); library NNK3; higher = more nucleation; inactive = no reads after selection. In outline: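 Nucleation score is defined as the DiMSum log enrichment of output over input reads, with centring on the mode score of non-aggregating sequences. A minimum of 100 input reads was required for each sequence. Reads came from Illumina sequencing of plasmid inserts from psi-negative yeast expressing Sup35N fused to peptides of 20 random codons, induced with 100 μM copper sulfate for 24 hours and grown 7 days at 30°C on medium lacking adenine and uracil.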
As for CFRLPCVQESVPDKVLLTGS, the amyloid nucleation score result is “inactive”. Then CFTVVPGSVMF, with “inactive”; and CFVAGYRSIGLLRFITIFCV, with “inactive”; and CFVGHADLKFMGFHWMVGEC, with “inactive”. For the substance CFYEGYWREITNMAFLILRP, the amyloid nucleation score entry is “inactive”. CGAQALAQWYLYLLSHAIQY: the amyloid nucleation score entry was “inactive”. Under CGLRIRWSNVLYSRRTCGFT stands “inactive”. Consider CGMRNLR, for which the amyloid nucleation score result was “inactive”. Take CGSWAYRY: the amyloid nucleation score is 0.435 ± 0.19. With CGVSLDRWSNMQ, the amyloid nucleation score entry is “inactive”. For the substance CGWMTHSEL, the amyloid nucleation score entry is “inactive”. In turn, CGYCVFPFLNGITVGGRFGH returned an amyloid nucleation score of 1.29 ± 0.11. With CHASRSGIKLLLSIAAWTCI, the amyloid nucleation score entry is “inactive”. In turn, CHHYHMWLRFGSVEWIRGMD yielded an amyloid nucleation score of -0.052 ± 0.38.

For the substance CHLYLPSQTSQH, the amyloid nucleation score result is “inactive”. Under CICLVDPERLKDKTI stands “inactive”; under CIEWHAQGDFFLMICLYCPD, “inactive”; under CIFFRVGSFLNYFYASAWHS, “inactive”. Then CIKTCSCLSLPGLRFSPAIS, with “inactive”; and CIMALGSNVLFRLEN, with 1.51 ± 0.091. On to CIMFVFILLQYAFYIYILLV, for which the amyloid nucleation score result was “inactive”. Then CIPLLFWVWSSNVCVRLKLQ, with “inactive”; and CIRIYATFFKLRQSYNGTNG, with 1.03 ± 0.14. For CISQVVVGSTHTAIGARAFA, the amyloid nucleation score result was “inactive”. Under CISSGGMLLNSFGSLWA stands “inactive”. On to CIVAANHRRCNFLRLGRRLG, for which the amyloid nucleation score was -0.654 ± 1.5. For CIVLLLTPSLGDWYTEDDFL, the amyloid nucleation score entry was “inactive”. Then CIVRIVQST, with “inactive”; and CIWLTVIFSWRYEVG, with “inactive”. As for CKFEMSEIDFVYASSIFR, the amyloid nucleation score result is “inactive”.

Regarding CKLYHIIGLYLGVVVL, the amyloid nucleation score entry is “inactive”. Take CKSIPWVFYWFLLLYGYL: the amyloid nucleation score result was “inactive”.

As for CKTIKVVLAALGFCYPQYSL, the amyloid nucleation score entry was “inactive”. In the case of CKYSMRLDCLARNNDLKVLL, the amyloid nucleation score result is “inactive”.

CLCFCCCSRVHYGTLFRNSA returned an amyloid nucleation score of 2.98 ± 0.052.

Regarding CLCSTRVRGSFPPDSTVHNF, the amyloid nucleation score result is “inactive”. On to CLCWKAVLDRELFKSGFTAA, for which the amyloid nucleation score result was “inactive”. Turning to CLFVCDYGLFECGQMVVEVY, the amyloid nucleation score result was “inactive”. Consider CLGYRFVWGVPFVKFDRIIW, for which the amyloid nucleation score result was “inactive”. Consider CLLSYSQPLGKGFGSTRDRC, for which the amyloid nucleation score entry is “inactive”. Turning to CLPQHKISNH, the amyloid nucleation score result was “inactive”.

On to CLSFYCTVSKKVRRKAVTPF, for which the amyloid nucleation score was 0.807 ± 0.2. Regarding CLSLLNFDVCVMRSVVRVFA, the amyloid nucleation score result was “inactive”. Under CMFSPPCDLRGETVLRRPSL stands 0.143 ± 0.62; under CMMSWIDSNFRGSEMLTH, “inactive”; under CMNIRPMATLTESSS, “inactive”. For the substance CMPHG, the amyloid nucleation score result was “inactive”. Consider CMQLVMSYTVCFVDGGVLA, for which the amyloid nucleation score result was “inactive”. Take CMRSESCVVPRNNKFFLLSG: the amyloid nucleation score is -0.361 ± 0.96.

As to CMTLYLLSLSC, the amyloid nucleation score result was “inactive”. Then CMTTASVQDKMVLLVWLLDE, with “inactive”; and CNFNLILLMDGIKGSFL, with 2.35 ± 0.065; and CNIEGYNETNVCECWNMELL, with “inactive”. On to CNIVSMFGCSGVMMACAAVV, for which the amyloid nucleation score result was “inactive”.

Consider CNKSFRLYEMM, for which the amyloid nucleation score entry is “inactive”. Take CNLVDSYNSKRMVNSTSMPF: the amyloid nucleation score result was “inactive”. With CNMSPKNFSIFSFVPNKPVG, the amyloid nucleation score entry is “inactive”. The substance CNTGPEIMASVAKVDVWVIK yielded an amyloid nucleation score of 1.65 ± 0.11. For CNVRFCIDFMIFMVISDSKD, the amyloid nucleation score stood at 1.11 ± 0.14. In the case of CNYCGPEAFGILFDYWTMSY, the amyloid nucleation score entry is “inactive”. Regarding CPESCSN, the amyloid nucleation score result is “inactive”. Under CPKALRIIGRSYCRTSEVTS stands “inactive”. Consider CPTPGWTLKRVGRVYECRG, for which the amyloid nucleation score entry was “inactive”. Turning to CQTGRYRESALSVLARKLNA, the amyloid nucleation score result is “inactive”. Consider CRINEWLGIGNSVSSSDHMG, for which the amyloid nucleation score result is “inactive”. Take CRISSPAGVNLLDSSRLSRL: the amyloid nucleation score result was “inactive”. Then CRKNRSFGDGDLKFCANLNC, with “inactive”; and CRLVAEYGLQVKPMQR, with “inactive”. Regarding CRRPKRNH, the amyloid nucleation score entry was “inactive”. CRRVMVILMH: the amyloid nucleation score entry was “inactive”. As to CRTQYKCRIAIWGYKFQPER, the amyloid nucleation score entry is “inactive”. Regarding CSALC, the amyloid nucleation score result is “inactive”. As to CSATRYFCRNLRRVCVNEYG, the amyloid nucleation score entry was “inactive”.

Consider CSCFYNNRIISSPMLLWLVQ, for which the amyloid nucleation score entry was “inactive”.

CSIVVNLMYLLVDACMGPKG: the amyloid nucleation score entry was “inactive”. Take CSKIFGRERMFYRVDMVS: the amyloid nucleation score entry was “inactive”. The substance CSMLASMWTTIRYLLLLEVA had an amyloid nucleation score of 1.49 ± 0.09. Substance CSNLVLP gave an amyloid nucleation score of -0.765 ± 1.4. Regarding CSPVTCEISDWIV, the amyloid nucleation score result is “inactive”. Then CSQIPLHKLTMCMLY, with “inactive”.

As to CSRSAENNFMMNLLNTIRVL, the amyloid nucleation score entry was “inactive”. Under CSRSSLLLVDWPMVGSDKLL stands “inactive”; under CSYAEKIVKGLAPVFLKVN, “inactive”.

In the case of CTNKFVWKFVKFNNLCLLAY, the amyloid nucleation score result was “inactive”. Consider CTNKSSVYEFCYCVADMANV, for which the amyloid nucleation score entry is “inactive”.

As to CTRCVFSIR, the amyloid nucleation score is -0.056 ± 0.57. Consider CTSESVSYNMDRTKCQMYLT, for which the amyloid nucleation score result is “inactive”. For the substance CTVGIYLLNLC, the amyloid nucleation score stood at 2.45 ± 0.084. Under CVDFR stands “inactive”; under CVEVLWERPSGTRAGMVGLL, -0.792 ± 1.4; under CVGSVPVMTKMVGDMGMASR, “inactive”.

With CVKVGDGCLHASIGAR, the amyloid nucleation score entry is “inactive”. Then CVLAFVVVLLGWGHSSGAGG, with 0.825 ± 0.2; and CVRFPANLSFGSDRKAKLS, with “inactive”; and CVRSTCQALGMGRWEPHCAI, with “inactive”. Take CVSNLLTTYNNAFRFAHMVS: the amyloid nucleation score result is “inactive”.

In turn, CVTYSYCYCQANHFHCRCQQ had an amyloid nucleation score of 2.88 ± 0.062. For CVVNLHSRIEARLLQIYRAV, the amyloid nucleation score entry is “inactive”. Substance CVVTGMMYTVFDKAFCFNAS displayed an amyloid nucleation score of 1.89 ± 0.11.

For the substance CVVVETLLNMRRSRY, the amyloid nucleation score entry is “inactive”.

CVYFGRVNFTVGLLPSLNGF: the amyloid nucleation score is 1.46 ± 0.14. Under CVYGKYLFLVIPEDEPTLYV stands 0.439 ± 0.31.

As for CVYIDGSIAVGWYMKFILTF, the amyloid nucleation score result was “inactive”. Turning to CWDFKGFMMESLTNRSPYAS, the amyloid nucleation score entry was “inactive”. Regarding CWFNPDPGLKWF, the amyloid nucleation score result was “inactive”.

With CWLAAFSFRRSVLSCQGGQG, the amyloid nucleation score entry was “inactive”. As for CWLNLGVLKSLY, the amyloid nucleation score entry is “inactive”. Take CWTAPLSKFLRVWVTIPYNL: the amyloid nucleation score result was “inactive”. Under CWTVMFCF stands 1.43 ± 0.11. Regarding CYAGRLSETSNWLLLCVELE, the amyloid nucleation score result was “inactive”. Then CYFSIYYYSYLLFRMLGVKW, with “inactive”; and CYLISILPLGLFIDSLAWVT, with “inactive”; and CYLNQSKYAARWNCGDNKME, with “inactive”. Turning to CYMVEDRRIDSRSAVSWRYV, the amyloid nucleation score result is “inactive”. For CYRYAIMNAFS, the amyloid nucleation score result was “inactive”. With CYSKYSS, the amyloid nucleation score result was “inactive”. Then CYSLFSLPMKALRSISVRCW, with 1.52 ± 0.13; and CYSNSEPISAYDD, with “inactive”; and CYVDVI, with “inactive”. As to CYVIILVRL, the amyloid nucleation score entry was “inactive”. Turning to CYVPVKGLYMPPYGTLRLWG, the amyloid nucleation score result is “inactive”.

CYYDSLYCVEFHFCNYIVVL: the amyloid nucleation score is -0.127 ± 0.99. Turning to DACSVNEMSYVDTAGIWVWR, the amyloid nucleation score entry was “inactive”. With DADSMRWNSPGLCH, the amyloid nucleation score result is “inactive”. DAFIGYHYLGGLISGIWSSR displayed an amyloid nucleation score of 0.693 ± 0.097. For the substance DASSDRVSVYSAYK, the amyloid nucleation score entry is “inactive”. The substance DAYREY returned an amyloid nucleation score of -0.557 ± 1.2. With DCGATSLKTMASGLRMKRTS, the amyloid nucleation score entry is “inactive”. Take DCLDNK: the amyloid nucleation score result was “inactive”. For DCLFRNLMS, the amyloid nucleation score entry is “inactive”.
